Measurements: publication doi:10.1101/2023.04.27.538529

Assays:
[1] = molecular target: mouse E372K SH2B3 SH2 domain (residues 324-446) (mouse) (UniProt O09039); test: SPR
[2] = molecular target: mouse WT SH2B3 SH2 domain (residues 324-446) (mouse) (UniProt O09039); test: SPR

JAK2 pY813 peptide was tested, and the IC50 [1] was 685 nM and the IC50 [2] was 127 nM.
